According to patent publication EP4806905A1, “PEPTIDE, PEPTIDE COMPLEX, PHARMACEUTICAL COMPOSITION, COMPOSITION FOR CELL CULTURE, AND COMPOSITION FOR MEDICAL USE, DIAGNOSTIC USE, OR RESEARCH USE” (PeptiDream Inc., priority 2023, dated 2025):
Numbered stars: 1 amine (or outer) side, 2 acyl side, 3 side chain; on linkers, the order of the positions; unused ones are H or OH. Square brackets hold non-standard residues; d marks the D form. Ends that are not written are not given here. X1 = (S)‑3‑(2-carboxy-2-(methylamino)ethyl)benzoic acid, CN([C@@H](Cc1cccc(C(=O)[*:3])c1)C(=O)[*:2])[*:1]; Trp(7-aza) = N[C@@H](Cc1c[nH]c2ncccc12)C(=O)O; Ala(4-THP) = N[C@@H](CC1CCOCC1)C(=O)O; NMe4Pal = CN[C@@H](Cc1ccncc1)C(=O)O; NMeF = CN[C@@H](Cc1ccccc1)C(=O)O; Tic = O=C(O)[C@@H]1Cc2ccccc2CN1; Cit = NC(=O)NCCC[C@H](N)C(=O)O; NMeV = CN[C@H](C(=O)O)C(C)C

How the values were obtained:
[1] = biological target: T1, Frizzled-2 (FZD2) (Mus musculus, UniProt Q9JIP6); experiment: Evaluation of binding activity to Frizzled using ELISA (Frizzled-2); conditions: peptide complex (linker structure number 9 added to the peptide) diluted to 10 nM; absorbance at 450 nm minus wells with no added peptide complex
T1 construct: purchased R&D systems 1307-FZ
Experimental: (§1) In order to evaluate the binding activity of the synthesized peptide complexes (peptide complexes having the linker structure number 9 added to peptide sequence numbers 1 to 78) to Frizzled, a binding activity evaluation using the ELISA method was conducted using the steps described below.
(§2) Biotin-labeled polyclonal anti-human IgG (eBioscience; 13-4998) was added to a streptavidin-coated 96-well plate (Thermo; 436014) in an amount of 200 µg per well, and left to stand for 30 minutes.
(§3) Following washing three times with PBS-T, 3 pmol of Fc-tagged Frizzled-2 (R&D systems; 1307-FZ), Frizzled-7 (R&D systems; 6178-FZ), or Frizzled-8 (R&D systems; 6129-FZ) was added per well and left to stand for 30 minutes to immobilize each Frizzled on the plate.
(§4) Following washing three times with PBS-T, the peptide complex diluted to 10 nM was added to Frizzled-2 and Frizzled-7, the peptide complex diluted to 500 nM was added to Frizzled-8, and the plate was left to stand for one hour.
(§5) Following washing three times with PBS-T, Anti-HA-tag mAb-HRP-Direct T (MBL; M180-7) that had been diluted 5000-fold with PBS-T was added and left to stand for 30 minutes.
(§6) Following washing three times with PBS-T, SureBlue TMB I-Component Microwell Peroxidase Substrate (SeraCare; 5120-0077) was added and left to stand for 10 minutes, and the reaction was then halted by adding an equal volume of TMB Stop Solution (SeraCare; 5150-0021).
(§7) Using an Infinite M Nano* (TECAN), the absorbance was measured at 450 nm. The binding signal for each peptide complex was calculated by subtracting the absorbance in those wells containing no added peptide complex from the absorbance in those wells containing the added peptide.

[2] = biological target: T2, Frizzled-7 (FZD7) (Homo sapiens, UniProt O75084); experiment: Evaluation of binding activity to Frizzled using ELISA (Frizzled-7); conditions: peptide complex (linker structure number 9 added to the peptide) diluted to 10 nM; absorbance at 450 nm minus wells with no added peptide complex
T2 construct: purchased R&D systems 6178-FZ
Experimental: as §1, §2, §3, §4, §5, §6, §7

[3] = biological target: T3, Frizzled-8 (FZD8) (Homo sapiens, UniProt Q9H461); experiment: Evaluation of binding activity to Frizzled using ELISA (Frizzled-8); conditions: peptide complex (linker structure number 9 added to the peptide) diluted to 500 nM; absorbance at 450 nm minus wells with no added peptide complex
T3 construct: purchased R&D systems 6129-FZ
T3 sequence (Q9H461 28-158 limits assumed): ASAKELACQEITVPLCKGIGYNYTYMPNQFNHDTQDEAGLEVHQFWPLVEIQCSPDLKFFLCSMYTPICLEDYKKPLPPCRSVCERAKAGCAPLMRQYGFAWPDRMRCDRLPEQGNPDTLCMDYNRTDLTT
Experimental: as §1, §2, §3, §4, §5, §6, §7

[4] = tested on: TCF/LEF Reporter-HEK 293 cells; experiment: Evaluation of Wnt signal activation capability, TCF/LEF reporter assay; assay type: cell-based; conditions: dimer structure numbers 1 to 43; classes 2-A to 2-E; tested at 0.1/1/10/100/1,000 nM depending on the dimer
Experimental: In order to evaluate the Wnt signal activation capability of each of the synthesized peptide complexes (dime structure numbers 1 to 67), transcriptional activity was evaluated using a TCF/LEF reporter.
TCF/LEF Reporter-HEK 293 cells (BPS Bioscience) were cultured in EMEM (Fuji FILM) containing 10% FBS (Thermo Fisher Scientific), 50 µg/mL Gentamicin (Nacalai Tesque), and 400 µg/mL Geneticin (Thermo Fisher Scientific).
The cells were detached using TrypLE (Thermo Fisher Scientific) and then suspended in EMEM containing 10% FBS, 50 µg/mL Gentamicin, and 10 mM LiCl (Sigma).
The cells were seeded into a white 96-well plate (Thermo Fisher Scientific) for cell adhesion and luminescence detection at a rate of 35,000 cells per well, and were then cultured overnight.
Subsequently, Recombinant Human Wnt-3a Protein (R&D systems) or a peptide complex was added in the presence of 1 nM Recombinant Human R-spondin 1 (R&D systems), and stimulation was conducted for 5 hours and 30 minutes in a CO2 incubator at 37°C.
The ONE-Glo Luciferase Assay System (Peomega) was added and shaken for 4 minutes, and the resulting luminescent signals were detected using a SpectraMax Paradigm multimode microplate reader (Molecular Devices).
The thus obtained signals were analyzed using a GraphPad Prism, and the percentage activity was calculated with the maximum value of the signal value induced by Wnt3a deemed to be 100% and the signal value with no stimulus deemed to be 0%. Evaluations were conducted with the Wnt concentration within a range from […] to determine the 100% value.
For each dimer structure number, tests were conducted using the peptide complex addition concentrations described below. • a) For dimer structure number 1, 1 nM, 10 nM, 100 nM, and 1,000 nM • b) For dimer structure numbers 2 to 4, 1 nM, 10 nM, and 100 nM • c) For dimer structure numbers 5 to 14, 0.1 nM, 1 nM, 10 nM, and 100 nM • d) For dimer structure numbers 15 to 43, 0.1 nM, 1 nM, and 10 nM • e) For dimer strength numbers 44 to 56, six points starting at 30 nM and then reducing by a common ratio of 1/4 (0.03 nM, 0.12 nM, 0.47 nM, 1.9 nM, 7.5 nM and 30 nM) • f) For dimer strength numbers 57 to 67, six points starting at 30 nM and then reducing by a common ratio of 1/5 (0.0096, 0.048, 0.24, 1.2, 6.0, and 30 nM)

ELISA signal Frizzled-2 (FZD2) [1]	ELISA signal Frizzled-7 (FZD7) [2]	ELISA signal Frizzled-8 (FZD8) [3]	Substance	TCF/LEF Reporter Assay Result [4]
0.3	0.3	0.0	Dimer structure number 46: dimer of peptide SEQ ID NO: 35 and peptide SEQ ID NO: 79 via linker structure number 8 (chain 1 [dF]S[Ala(4-THP)]IRY[NMeF]VT[NMeF]I[NMeV]GCG; chain 2 FRWDVR[NMeF]SNWN[Tic]NCG; cysteine pairing not given here; also: dimer via linker structure number 8, attachment not given here)	2-C (peptide complexes that exhibited 50% or more activity when 10 nM of the peptide complex was added)
1.7	1.7	1.5	Dimer structure number 66: dimer of peptide SEQ ID NO: 76 and peptide SEQ ID NO: 163 via linker structure number 3 (chain 1 [dF]S[Cit]IRY[NMeF]VT[NMe4Pal]I[NMeV][dS]CG; chain 2 FR[Trp(7-aza)]DVR[X1]SE[Trp(7-aza)]N[Tic]DCG; not fully specified; cysteine pairing not given here; also: dimer via linker structure number 3, attachment not given here)	2-B (peptide complexes that exhibited 50% or more activity when 1 nM of the peptide complex was added)
0.0	0.0	0.4	Peptide sequence number 99: peptide of formula B3, amino acid residues shown in Table 2 (FRWDVR[NMeF]SN[Trp(7-aza)]N[Tic]NCG)	2-C (peptide complexes that exhibited 50% or more activity when 10 nM of the peptide complex was added)
1.5	1.4	0.7	df-S-D-I-R-Y-MeF-V-T-MeF-I-MeV-ds-C-G ([dF]SDIRY[NMeF]VT[NMeF]I[NMeV][dS]CG) [Peptide sequence number 66]	2-C (peptide complexes that exhibited 50% or more activity when 10 nM of the peptide complex was added)
